Paper PMC4756840, “The RNA-binding protein LARP1 is a post-transcriptional regulator of survival and tumorigenesis in ovarian cancer”

B1: OAZ1 3' UTR (ssRNA)
RNA: GGCCGCCUCGGGGCUGGGCAUCCGGCCCCUGGGGCCACCCCUUGUCAGCCGGGUGGGUAGGAACCGUAGACUCGCUCAUCUCGCCUGGGUUUGUCCGCAUGUUG
B2: BCL2 3' UTR construct 3 (ssRNA)
RNA: GCCUGUUUUGUCUUUUGUUGUUGUUCAAACGGGAUUCACAGAGUAUUUGAAAAAUGUAUAUAUAUUAAGAGGUCACGGGGGCUAAUUGCUGGCUGGCUGCCUUUUGCUGUGGGGUUUUGUU
B3: BCL2 3' UTR construct 1 (ssRNA)
RNA: GGCUCCACCUGGAUGUUCUGUGCCUGUAAACAUAGAUUCGCUUUCCAUGUUGUUGGCCGGAUCACCAUCUGAAGAGCAGACGGAUGGAAAAAGGACCUGAUCAUUGGGGAAGCUGGCUUUCUGGCUGCUGGAGGCUGGGGAGAAGGUGUUCAUUCACUUGCAUUUCUUUGCCCUGGG
B4: BCL2 3' UTR construct 2 (ssRNA)
RNA: GCCCUCCUGCCCUCCUUCCGCGGGGGCUUUCUCAUGGCUGUCCUUCAGGGUCUUCCUGAAAUGCAGUGGUGCUUACGCUCCACCAAGAAAGCAGGAAACCUGUGGUAUGAAGCCAGACCUCCCCGG
B5: BCL2 3' UTR construct 4 (ssRNA)
RNA: GCCCUCCAGAUAGCUCAUUUCAUUAAGUUUUUCCCUCCAAGGUAGAAUUUGCAAGAGUGACAGUGGAUUGCAUUUCUUUUGGGGAAGCUUUCUUUUGGUGGUUUUGUUUAUUAUACCUUCUUAAGUUUUCAACCAAGGUUUGCUUUUGUU

Legend:
LARP1 full length [1] = molecular target: T1, LARP1 full length (UniProt Q6PKG0-3 1-1019); assay: competition; vs 32P-RPS6, 1-30 uM cold RNA; 20 mM Tris-HCl pH 8, 150 mM NaCl, 10% glycerol, 1 mM DTT, 1 ug BSA, 0.5 ug tRNA, RNA <2 nM, 30 min on ice; native PAGE at 4 C; settings: protein: recombinant; tags: N-terminal 6xHis-MBP, removed by TEV cleavage; label: 5'-32P in direct EMSA
LARP1 full length [2] = molecular target: T1, LARP1 full length; assay: EMSA; tRNA and BSA present; Kd only in figure; 20 mM Tris-HCl pH 8, 150 mM NaCl, 10% glycerol, 1 mM DTT, 1 ug BSA, 0.5 ug tRNA, RNA <2 nM, 30 min on ice; native PAGE at 4 C; settings: protein: recombinant; tags: N-terminal 6xHis-MBP, removed by TEV cleavage; label: 5'-32P in direct EMSA
LARP1 full length [3] = molecular target: T1, LARP1 full length; assay: EMSA; judged non-specific; Kd only in figure; 20 mM Tris-HCl pH 8, 150 mM NaCl, 10% glycerol, 1 mM DTT, 1 ug BSA, 0.5 ug tRNA, RNA <2 nM, 30 min on ice; native PAGE at 4 C; settings: protein: recombinant; tags: N-terminal 6xHis-MBP, removed by TEV cleavage; label: 5'-32P

Binder | binding signal (LARP1 full length [3]) | also measured
B1 |  | binding result (LARP1 full length [1]): no binding
B2 |  | binding signal (LARP1 full length [2]): ~4 fold higher affinity than other BCL2 constructs
B3 | ~0.25 affinity relative to BCL2 construct 3 | 
B4 | ~0.25 affinity relative to BCL2 construct 3 | 
B5 | ~0.25 affinity relative to BCL2 construct 3 | 
